Among the data in patent US20070254313A1, “Gnal Splice Variant and Uses Thereof” (AstraZeneca AB, priority 2003, published 2007) are induction of GTPγS agonist signal over baseline, A2a receptor co-expressed with XLGolf in Sf9 cells, efficacy (Emax) of dopamine-induced [35S]-GTPγS binding, membranes of Sf9 cells co-expressing DRD1 and XLGolf and magnitude of (-)-isoproterenol-induced GTPγS binding above the baseline, membranes of Sf9 cells expressing β2 receptor and XLGolf (% above the baseline) values, retold here.

Holding throughout (assay): cell-based or functional assay
In experiment [1] the target is human adenosine A2a receptor (ADORA2A) (human) (UniProt P29274).
Experiment [2] deals with human dopamine D1A receptor (human) (UniProt P21728).
Experiment [3] deals with human β2 adrenergic receptor (human) (UniProt P07550).

human adenosine A2a receptor (ADORA2A) (human), sequence (P29274 whole entry): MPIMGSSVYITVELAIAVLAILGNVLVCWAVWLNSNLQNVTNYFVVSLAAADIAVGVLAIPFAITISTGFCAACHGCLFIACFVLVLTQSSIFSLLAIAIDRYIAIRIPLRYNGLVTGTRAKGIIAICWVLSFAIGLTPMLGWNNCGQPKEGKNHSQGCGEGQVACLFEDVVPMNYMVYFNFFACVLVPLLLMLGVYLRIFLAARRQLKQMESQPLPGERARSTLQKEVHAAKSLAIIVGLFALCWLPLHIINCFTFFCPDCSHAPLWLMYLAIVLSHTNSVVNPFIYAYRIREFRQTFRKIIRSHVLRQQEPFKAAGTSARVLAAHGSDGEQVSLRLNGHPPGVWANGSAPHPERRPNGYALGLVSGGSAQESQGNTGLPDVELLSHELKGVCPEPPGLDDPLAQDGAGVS
human dopamine D1A receptor (human), sequence (P21728 whole entry): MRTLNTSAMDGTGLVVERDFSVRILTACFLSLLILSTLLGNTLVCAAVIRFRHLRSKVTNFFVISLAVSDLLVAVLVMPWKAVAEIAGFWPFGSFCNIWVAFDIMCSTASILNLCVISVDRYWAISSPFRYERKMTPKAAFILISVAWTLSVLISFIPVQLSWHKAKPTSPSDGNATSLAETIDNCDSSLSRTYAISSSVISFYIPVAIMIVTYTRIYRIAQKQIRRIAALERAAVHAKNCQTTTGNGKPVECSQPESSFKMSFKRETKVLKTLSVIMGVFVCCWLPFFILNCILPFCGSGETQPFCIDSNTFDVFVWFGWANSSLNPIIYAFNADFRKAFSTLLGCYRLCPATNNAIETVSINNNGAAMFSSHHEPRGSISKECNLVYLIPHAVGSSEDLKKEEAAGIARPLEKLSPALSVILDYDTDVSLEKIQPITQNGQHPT

B1: human XLGolf protein (protein)
chain: MGLCYSLRPLLFGGPGDDPCAASEPPVEDAQPAPAPALAPVRAAARDTARTLLPRGGEGSPACARPKADKPKEKRQRTEQLSAEEREAAKEREAVKEARKVSRGIDRMLRDQKRDLQQTHRLLLLGAGESGKSTIVKQMRILHVNGFNPEEKKQKILDIRKNVKDAIVTIVSAMSTIIPPVPLANPENQFRSDYIKSIAPITDFEYSQEFFDHVKKLWDDEGVKACFERSNEYQLIDCAQYFLERIDSVSLVDYTPTDQDLLRCRVLTSGIFETRFQVDKVNFHMFDVGGQRDERRKWIQCFNDVTAIIYVAACSSYNMVIREDNNTNRLRESLDLFESIWNNRWLRTISIILFLNKQDMLAEKVLAGKSKIEDYFPEYANYTVPEDATPDAGEDPKVTRAKFFIRDLFLRISTATGDGKHYCYPHFTCAVDTENIRRVFNDCRDIIQRMHLKQYELL
B1 gave an induction of GTPγS agonist signal over baseline, A2a receptor co-expressed with XLGolf in Sf9 cells in experiment [1] of 3 fold. For the same molecule, in experiment [2], the efficacy (Emax) of dopamine-induced [35S]-GTPγS binding, membranes of Sf9 cells co-expressing DRD1 and XLGolf amounted to 404%. This molecule gave a magnitude of (-)-isoproterenol-induced GTPγS binding above the baseline, membranes of Sf9 cells expressing β2 receptor and XLGolf (% above the baseline) in experiment [3] of 700.
